In US20220242935A1 one finds total buried surface area on the NA data, which are given here for 3 substances.

Test in all cases: crystal structure of the Fab-NA complex
Experiment [1] concerns the target N2 NA ectodomain of A/Japan/305/1957 (H2N2) (influenza A virus A/Japan/305/1957 (H2N2)).
Experiment [2] concerns the target N1 NA ectodomain of A/California/04/2009 (H1N1) (influenza A virus A/California/04/2009 (H1N1)) (UniProt Q6DPI6).
Experiment [3] addresses N9 NA ectodomain of A/Hunan/02650/2016 (H7N9) (influenza A virus A/Hunan/02650/2016 (H7N9)).

1E01 Fab: the total buried surface area on the NA in experiment [1] was found to be 900 Å2. As for 1G01 Fab, the total buried surface area on the NA in experiment [2] is 800 Å2. In turn, 1G04 Fab came in with a total buried surface area on the NA in experiment [3] of 1030 Å2.
